Laboratory results reported in paper PMC6549136.

Molecular target: Rpc31, endogenous in hmt1Δ yeast cells (hypomethylated) (S. cerevisiae (endogenous in yeast cells)) (UniProt P17890)
Assay: co-IP; α-Rpc31 antibody cross-linked to magnetic beads; yeast lysates at 10 mg/ml, 2 h at 4°C; three washes with PBS, 0.5% Triton X-100, 2.5 mM MgCl2; immunoblot; cells before and after treatment with CPZ for 1 h

UniProt P17890, sequence (P17890 whole entry, stated change not applied): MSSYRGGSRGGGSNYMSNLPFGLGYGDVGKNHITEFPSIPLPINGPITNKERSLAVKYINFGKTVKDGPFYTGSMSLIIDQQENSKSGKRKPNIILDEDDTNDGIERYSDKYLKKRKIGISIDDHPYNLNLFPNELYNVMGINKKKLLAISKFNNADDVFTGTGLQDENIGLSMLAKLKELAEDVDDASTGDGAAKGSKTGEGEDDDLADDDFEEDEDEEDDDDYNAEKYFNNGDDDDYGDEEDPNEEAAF

association relative to that in WT cells, after CPZ (% lower than in WT cells): 40
Substance: Myc-tagged Maf1-7SA (from UniProt P41910 1-395) (natural protein)
